Test results reported in paper PMC11871066, “Structure-based discovery of hydrocarbon-stapled paxillin peptides that block FAK scaffolding in cancer” (Nature Communications, 2025).
Values belong to the binder of their own block, whether it stands above or below them. Bridge positions count the residues as written; N and C are the ends. Square brackets hold non-standard residues; d marks the D form. R8 = C=CCCCCCC[C@@](C)(N)C(=O)O; R5 = C=CCCC[C@@](C)(N)C(=O)O; S5 = C=CCCC[C@](C)(N)C(=O)O

Tests used:
[1] = target: T1, biotinylated AviTag FAK FAT protein (human, biotin); assay: SPR; biotinylated AviTag FAT immobilised on a streptavidin (SADH) biosensor, ForteBio Pioneer FE, OneStep gradient injection at 150 µl/min; 100 mM Tris-Cl pH 8.0, 200 mM NaCl, 0.05% Tween-20; peptides 200 µM to 97 nM; KD from kinetic data, one-site model; conditions: both partners purified
T1 construct: focal adhesion kinase (FAK), focal adhesion targeting (FAT) domain; captured on a streptavidin biosensor; also called focal adhesion targeting (FAT) domain

[2] = target: T2, recombinant FAK FAT protein (fluorescence polarisation assay) (human); assay: fluorescence polarisation; competition: FAT 25 µM, TAMRA-LD2 L10D probe 0.1 µM, peptide titrated from 1.25 mM, 3 h; 20 mM Tris-Cl pH 8.0, 200 mM NaCl, 0.05% β-mercaptoethanol, 0.1% Triton-X 100, 5% glycerol; Ki calculated from IC50; conditions: both partners purified
T2 construct: focal adhesion kinase (FAK), focal adhesion targeting (FAT) domain

Binder: Ac-NL[R8]EWDRLL[S5]EWN-NH2 (staple 3-10) [stapled peptide 1933]
Kd [1]: 155 µM
Ki [2]: 281 µM

B1: stapled peptide 1920 (lengthened 1907) (peptide)
chain: Ac-SLGSNL[R8]ELDRLL[S5]ELNAVQH-NH2
modifications: staple 7-14
SMILES: CC(=O)N[C@@H](CO)C(=O)N[C@@H](CC(C)C)C(=O)NCC(=O)N[C@@H](CO)C(=O)N[C@@H](CC(N)=O)C(=O)N[C@@H](CC(C)C)C(=O)N[C@]1(C)CCCCCCC=CCCC[C@@](C)(C(=O)N[C@@H](CCC(=O)O)C(=O)N[C@@H](CC(C)C)C(=O)N[C@@H](CC(N)=O)C(=O)N[C@@H](C)C(=O)N[C@H](C(=O)N[C@@H](CCC(N)=O)C(=O)N[C@@H](Cc2c[nH]cn2)C(N)=O)C(C)C)NC(=O)[C@H](CC(C)C)NC(=O)[C@H](CC(C)C)NC(=O)[C@H](CCCNC(=N)N)NC(=O)[C@H](CC(=O)O)NC(=O)[C@H](CC(C)C)NC(=O)[C@H](CCC(=O)O)NC1=O
Ki [2]: 25 µM

Binder: Ac-NLSE[S5]DRL[S5]LELN-NH2 (staple 5-9) [stapled peptide 1919]
Kd [1]: 80.6 µM
Ki [2]: 38.6 µM

Binder: Ac-[R8]ELDRLL[S5]-NH2 (staple 1-8) [truncated stapled peptide 2011]
Kd [1]: > 200 µM
Ki [2]: > 333 µM

Binder: Ac-NLSE[R8]DRLLLE[S5]N-NH2 (staple 5-12) [stapled peptide 1914]
Kd [1]: 120 µM
Ki [2]: > 1250 µM

Binder: Ac-NL[R8]QLDRLL[S5]QLN-NH2 (staple 3-10) [stapled peptide 1910]
Kd [1]: 22.6 µM
Ki [2]: 46.8 µM

Binder: Ac-NL[R8]ALDRLL[S5]ELN-NH2 (staple 3-10) [stapled peptide 2009]
Kd [1]: 3.4 µM
Ki [2]: 26.7 µM

More lines, main results first:

Kd [1]: 146 µM
Binder: Ac-NLS[R8]LDRLLL[S5]LN-NH2 (staple 4-11) [stapled peptide 1905]
Ki [2]: > 1250 µM

Kd [1]: 13.7 µM
Binder: Ac-DL[R8]ELDRLL[S5]ELD-NH2 (staple 3-10) [stapled peptide 1913]
Ki [2]: 21.8 µM

Kd [1]: 60.6 µM
Binder: Ac-NL[R8]ELDRLW[S5]ELN-NH2 (staple 3-10) [stapled peptide 2007]
Ki [2]: 190 µM

Kd [1]: 12.6 µM
Binder: Ac-NL[R8]ALDALL[S5]ELN-NH2 (staple 3-10) [stapled peptide 2010]
Ki [2]: 68.5 µM

Kd [1]: 27.9 µM
Binder: Ac-N[R8]SELDRL[S5]LELN-NH2 (staple 2-9) [stapled peptide 2017]
Ki [2]: 80.6 µM

Kd [1]: > 200 µM
Binder: Ac-NLSELDRL[R5]LE[S5]N-NH2 (staple 9-12) [stapled peptide 1921]
Ki [2]: 492 µM

Kd [1]: 30.6 µM
Binder: Ac-NLSELDR[S5]LLE[S5]N-NH2 (staple 8-12) [stapled peptide 2015]
Ki [2]: 114 µM
